Measured values taken from the supplement of paper PMC11246515.
± gives the standard deviation of the averaged measurements.

Test: total protein half-life in vivo (active degradation + dilution); higher = more stable protein
[1] = E. coli NCM3722 delta-clpP delta-lon delta-hslV, growth: N-lim chemostat, doubling time 6 h
[2] = E. coli NCM3722 delta-clpP, growth: N-lim chemostat, doubling time 6 h
[3] = E. coli NCM3722 delta-hslV, growth: N-lim chemostat, doubling time 6 h
[4] = E. coli NCM3722 delta-lon, growth: N-lim chemostat, doubling time 6 h
[5] = E. coli NCM3722 delta-smpB, growth: N-lim chemostat, doubling time 6 h
[6] = wild type E. coli NCM3722, growth: C-lim chemostat, doubling time 3 h
[7] = wild type E. coli NCM3722, growth: C-lim chemostat, doubling time 6 h
[8] = wild type E. coli NCM3722, growth: C-lim chemostat, doubling time 12 h
[9] = wild type E. coli NCM3722, growth: N-lim chemostat, doubling time 6 h
[10] = wild type E. coli NCM3722, growth: N-lim chemostat, doubling time 12 h
[11] = wild type E. coli NCM3722, growth: P-lim chemostat, doubling time 6 h
[12] = wild type E. coli NCM3722, growth: P-lim chemostat, doubling time 12 h

Sequence: MSNNIRIEEDLLGTREVPADAYYGVHTLRAIENFYISNNKISDIPEFVRGMVMVKKAAAMANKELQTIPKSVANAIIAACDEVLNNGKCMDQFPVDVYQGGAGTSVNMNTNEVLANIGLELMGHQKGEYQYLNPNDHVNKCQSTNDAYPTGFRIAVYSSLIKLVDAINQLREGFERKAVEFQDILKMGRTQLQDAVPMTLGQEFRAFSILLKEEVKNIQRTAELLLEVNLGATAIGTGLNTPKEYSPLAVKKLAEVTGFPCVPAEDLIEATSDCGAYVMVHGALKRLAVKMSKICNDLRLLSSGPRAGLNEINLPELQAGSSIMPAKVNPVVPEVVNQVCFKVIGNDTTVTMAAEAGQLQLNVMEPVIGQAMFESVHILTNACYNLLEKCINGITANKEVCEGYVYNSIGIVTYLNPFIGHHNGDIVGKICAETGKSVREVVLERGLLTEAELDDIFSVQNLMHPAYKAKRYTDESEQ [P0AC38]
- total protein half-life in vivo [1]: 5.54 ± 0.31 h
- total protein half-life in vivo [2]: 5.5 ± 1.1 h
- total protein half-life in vivo [3]: 1.13 ± 0.052 h
- total protein half-life in vivo [4]: 1.68 ± 0.16 h
- total protein half-life in vivo [5]: 1.68 ± 0.45 h
- total protein half-life in vivo [6]: 2.42 ± 0.11 h
- total protein half-life in vivo [7]: 4.284 ± 0.012 h
- total protein half-life in vivo [8]: 6.58 ± 0.62 h
- total protein half-life in vivo [9]: 3.1 ± 0.18 h
- total protein half-life in vivo [10]: 2.93 ± 0.087 h
- total protein half-life in vivo [11]: 4.79 ± 0.14 h
- total protein half-life in vivo [12]: 9.237 ± 0.036 h

Sequence: MSNQEPATILLIDDHPMLRTGVKQLISMAPDITVVGEASNGEQGIELAESLDPDLILLDLNMPGMNGLETLDKLREKSLSGRIVVFSVSNHEEDVVTALKRGADGYLLKDMEPEDLLKALHQAAAGEMVLSEALTPVLAASLRANRATTERDVNQLTPRERDILKLIAQGLPNKMIARRLDITESTVKVHVKHMLKKMKLKSRVEAAVWVHQERIF [P0AF28]
- total protein half-life in vivo [1]: 6.09 ± 2.1 h
- total protein half-life in vivo [2]: 5.77 ± 2.1 h
- total protein half-life in vivo [3]: 4.05 ± 0.41 h
- total protein half-life in vivo [4]: 4.81 ± 0.33 h
- total protein half-life in vivo [5]: 4.166 ± 0.011 h
- total protein half-life in vivo [6]: 3.06 ± 0.19 h
- total protein half-life in vivo [7]: 5.03 ± 0.15 h
- total protein half-life in vivo [8]: 10.1 ± 1.3 h
- total protein half-life in vivo [9]: 4.19 ± 0.087 h
- total protein half-life in vivo [10]: 7.26 ± 0.29 h
- total protein half-life in vivo [11]: 5.39 ± 0.99 h
- total protein half-life in vivo [12]: 9.74 ± 1.3 h

Sequence: MSNQFGDTRIDDDLTLLSETLEEVLRSSGDPADQKYVELKARAEKALDDVKKRVSQASDSYYYRAKQAVYRADDYVHEKPWQGIGVGAAVGLVLGLLLARR [P0AEH5]
- total protein half-life in vivo [1]: 6.419 ± 0.022 h
- total protein half-life in vivo [3]: 6.88 ± 0.34 h
- total protein half-life in vivo [4]: > 8 h
- total protein half-life in vivo [5]: 5.64 ± 0.42 h
- total protein half-life in vivo [7]: 6.46 ± 0.78 h
- total protein half-life in vivo [8]: 10.1 ± 0.52 h
- total protein half-life in vivo [9]: 5.99 ± 0.7 h
- total protein half-life in vivo [10]: 14.8 ± 0.89 h
- total protein half-life in vivo [11]: 5.16 ± 1.5 h
- total protein half-life in vivo [12]: 12.6 ± 0.4 h

Sequence: MSNQGEYPEDNRVGKHEPHDLSLTRRDLIKVSAATAATAVVYPHSTLAASVPAATPAPEIMPLTLKVNGKTEQLEVDTRTTLLDTLRENLHLIGTKKGCDHGQCGACTVLVNGRRLNACLTLAVMHQGAEITTIEGLGSPDNLHPMQAAFIKHDGFQCGYCTSGQICSSVAVLKEIQDGIPSHVTVDLVSAPETTADEIRERMSGNICRCGAYANILAAIEDAAGEIKS
- total protein half-life in vivo [1]: 2.91 ± 0.9 h
- total protein half-life in vivo [4]: 2.02 h

Sequence: MSNRKYFGTDGIRGRVGDAPITPDFVLKLGWAAGKVLARHGSRKIIIGKDTRISGYMLESALEAGLAAAGLSALFTGPMPTPAVAYLTRTFRAEAGIVISASHNPFYDNGIKFFSIDGTKLPDAVEEAIEAEMEKEISCVDSAELGKASRIVDAAGRYIEFCKATFPNELSLSELKIVVDCANGATYHIAPNVLRELGANVIAIGCEPNGVNINAEVGATDVRALQARVLAEKADLGIAFDGDGDRVIMVDHEGNKVDGDQIMYIIAREGLRQGQLRGGAVGTLMSNMGLELALKQLGIPFARAKVGDRYVLEKMQEKGWRIGAENSGHVILLDKTTTGDGIVAGLQVLAAMARNHMSLHDLCSGMKMFPQILVNVRYTAGSGDPLEHESVKAVTAEVEAALGNRGRVLLRKSGTEPLIRVMVEGEDEAQVTEFAHRIADAVKAV
- total protein half-life in vivo [1]: 6.02 ± 0.36 h
- total protein half-life in vivo [2]: 6.03 ± 0.15 h
- total protein half-life in vivo [3]: 5.92 ± 0.21 h
- total protein half-life in vivo [4]: 6.65 ± 0.13 h
- total protein half-life in vivo [5]: 5.71 ± 0.24 h
- total protein half-life in vivo [6]: 3.24 ± 0.19 h
- total protein half-life in vivo [7]: 6.27 ± 0.035 h
- total protein half-life in vivo [8]: 12.62 ± 0.093 h
- total protein half-life in vivo [9]: 6.08 ± 0.13 h
- total protein half-life in vivo [10]: 11.8 ± 0.54 h
- total protein half-life in vivo [11]: 6.24 ± 0.16 h
- total protein half-life in vivo [12]: 13.8 ± 0.27 h

Sequence: MSNTDASGEKRVTGTSERREQIIQRLRQQGSVQVNDLSALYGVSTVTIRNDLAFLEKQGIAVRAYGGALICDSTTPSVEPSVEDKSALNTAMKRSVAKAAVELIQPGHRVILDSGTTTFEIARLMRKHTDVIAMTNGMNVANALLEAEGVELLMTGGHLRRQSQSFYGDQAEQSLQNYHFDMLFLGVDAIDLERGVSTHNEDEARLNRRMCEVAERIIVVTDSSKFNRSSLHKIIDTQRIDMIIVDEGIPADSLEGLRKAGVEVILVGE [P0ACK2]
- total protein half-life in vivo [2]: 6.24 ± 1 h
- total protein half-life in vivo [3]: 4.83 ± 0.21 h
- total protein half-life in vivo [4]: 5.24 ± 0.27 h
- total protein half-life in vivo [5]: 5.04 ± 0.56 h
- total protein half-life in vivo [6]: 3.02 ± 0.15 h
- total protein half-life in vivo [7]: 5.31 ± 0.35 h
- total protein half-life in vivo [8]: 9.94 ± 0.52 h
- total protein half-life in vivo [9]: 4.89 ± 0.46 h
- total protein half-life in vivo [10]: 9.31 ± 0.91 h
- total protein half-life in vivo [11]: 5.05 ± 0.16 h
- total protein half-life in vivo [12]: 9.52 ± 1.1 h

Sequence: MSNTPIELKGSSFTLSVVHLHEAEPKVIHQALEDKIAQAPAFLKHAPVVLNVSALEDPVNWSAMHKAVSATGLRVIGVSGCKDAQLKAEIEKMGLPILTEGKEKAPRPAPTPQAPAQNTTPVTKTRLIDTPVRSGQRIYAPQCDLIVTSHVSAGAELIADGNIHVYGMMRGRALAGASGDRETQIFCTNLMAELVSIAGEYWLSDQIPAEFYGKAARLQLVENALTVQPLN
- total protein half-life in vivo [1]: 5.53 ± 0.29 h
- total protein half-life in vivo [2]: 5 ± 0.28 h
- total protein half-life in vivo [3]: 5.32 ± 0.053 h
- total protein half-life in vivo [4]: 5.84 ± 0.27 h
- total protein half-life in vivo [5]: 4.34 ± 0.23 h
- total protein half-life in vivo [6]: 2.977 ± 0.015 h
- total protein half-life in vivo [7]: 5.72 ± 0.27 h
- total protein half-life in vivo [8]: 9.85 ± 0.83 h
- total protein half-life in vivo [9]: 5.25 ± 0.7 h
- total protein half-life in vivo [10]: 8.75 ± 0.6 h
- total protein half-life in vivo [11]: 5.44 ± 0.24 h
- total protein half-life in vivo [12]: 11.2 ± 1 h
